In PMC11143692:

Target: Flag-eIF4E tagged with homotetrameric tag 6 (HOTag6), the eIF4E part of TORSEL (UniProt P06730)
UniProt P06730, sequence (P06730 whole entry): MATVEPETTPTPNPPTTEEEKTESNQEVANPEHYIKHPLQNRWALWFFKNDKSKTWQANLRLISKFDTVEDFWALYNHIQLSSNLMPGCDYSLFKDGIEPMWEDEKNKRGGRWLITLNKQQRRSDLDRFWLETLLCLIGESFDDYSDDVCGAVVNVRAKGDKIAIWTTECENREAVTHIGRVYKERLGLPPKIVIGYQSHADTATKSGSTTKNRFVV

TORSEL fluorescent puncta in living U2OS cells when mTORC1 is suppressed by serum deprivation, EAA starvation or rapamycin; diffuse under normal culture conditions; 50-90% of cells with visible puncta: 50 to 90 % of cells
Substance: HA-tagged 4EBP1 tagged with mCherry and homohexameric tag 3 (HOTag3), the 4EBP1 part of TORSEL (from UniProt Q13541 1-118) (natural protein)
